Experimental data from patent CN116262790A (TAIZE HUIKANG BIOMEDICAL CO LTD; BEIJING MIANYI FANGZHOU …, dated 2023).
Residue numbers refer to the chain shown, from its start. Names may count otherwise.

T1: 人CD27蛋白 (Cat: 10039-H03H, Sino Biological Inc.) (human, UniProt P26842 20-192)
T1 construct: Bought recombinant protein coated on the SPR chip
T1 sequence (looked up): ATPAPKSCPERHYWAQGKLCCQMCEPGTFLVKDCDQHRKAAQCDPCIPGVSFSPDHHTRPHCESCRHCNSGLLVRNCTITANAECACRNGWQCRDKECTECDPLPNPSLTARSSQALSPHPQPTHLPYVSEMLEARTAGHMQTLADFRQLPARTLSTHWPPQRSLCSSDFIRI

T2: 人CD27 (HEK::CD27细胞表达) (human, UniProt P26842 20-260)
T2 construct: whole, on cells; also called hCD27; 表达人CD27的细胞
T2 sequence (looked up): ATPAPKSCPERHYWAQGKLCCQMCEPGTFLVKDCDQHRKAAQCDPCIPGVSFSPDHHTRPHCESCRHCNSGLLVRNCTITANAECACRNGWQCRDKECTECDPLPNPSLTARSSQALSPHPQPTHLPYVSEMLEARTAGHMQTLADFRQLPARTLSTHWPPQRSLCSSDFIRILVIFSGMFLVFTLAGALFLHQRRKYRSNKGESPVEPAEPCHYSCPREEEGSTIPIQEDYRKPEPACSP

B1: Varlilumab (antibody, V domains shown)
VH: QVQLVESGGGVVQPGRSLRLSCAASGFTFSSYDMHWVRQAPGKGLEWVAVIWYDGSNKYYADSVKGRFTISRDNSKNTLYLQMNSLRAEDTAVYYCARGSGNWGFFDYWGQGTLVTVSS
VL: DIQMTQSPSSLSASVGDRVTITCRASQGISRWLAWYQQKPEKAPKSLIYAASSLQSGVPSRFSGSGSGTDFTLTISSLQPEDFATYYCQQYNTYPRTFGQGTKVEIKR
B2: 6D8 (antibody, V domains shown)
VH: QIQLVQSGPELKKPGETVKISCKASGYTFTNYGMNWVKQAPGKGLKWMGWINTNTGEPTYADDFKGRFAFSLETSATTAYLQINNLKNEDTATYFCAREGDGFDSWGQGTTLTVSS
VL: QFVLTQSPAIMSASPGEKVTMTCSATSSVNYMHWYQQKSGTSPKRWIYDTSRLASGVPARFSGSGSGTSYSLTISSMEAEDAATYYCQQWNTNPWTFGGGTKLEIK
notes: also called 6D8抗体; 鼠抗人CD27单克隆抗体6D8
B3: 6D8-G98A (antibody, human IgG4, V domains shown)
VH: B2 VH with G102A
VL: B2 VL
notes: also called 嵌合的6D8-G98A; 6D8-G98A(人鼠嵌合抗体)

Assays:
[1] = target: T1, 人CD27蛋白 (Cat: 10039-H03H, Sino …); experiment: SPR (Reichert4), human CD27 protein on chip, antibody at 2.50e-8 as analyte
[2] = target: T1, 人CD27蛋白 (Cat: 10039-H03H, Sino …); experiment: SPR (Reichert4), human CD27 protein on chip, antibody at 5.00e-8 as analyte
[3] = target: T1, 人CD27蛋白 (Cat: 10039-H03H, Sino …); experiment: SPR (Reichert4), human CD27 protein on chip, antibody at 6.25e-9 as analyte
[4] = target: T1, 人CD27蛋白 (Cat: 10039-H03H, Sino …); experiment: SPR (Reichert4), human CD27 protein on chip, antibody at 1.25e-8 as analyte
[5] = target: 人CD27 (HEK::CD27细胞表达) (human) (UniProt P26842); experiment: flow cytometry on cells expressing human CD27; parameters: concentration or dose not given beside the values
[6] = target: T2, 人CD27 (HEK::CD27细胞表达); experiment: flow cytometry on HEK::CD27 cells, 10 ng and 100 ng antibody

Binder	Kd [1] [nM]	koff [1] [s⁻¹]	kon [1] [M⁻¹ s⁻¹]	Kd [2] [nM]	koff [2] [s⁻¹]	kon [2] [M⁻¹ s⁻¹]	Kd [3] [nM]	koff [3] [s⁻¹]	kon [3] [M⁻¹ s⁻¹]	Kd [4] [nM]	koff [4] [s⁻¹]	kon [4] [M⁻¹ s⁻¹]	结合率 [5] [%]	binding result [6]
B1	0.00185	2.14e-07	116000	0.00185	2.14e-07	116000	0.00185	2.14e-07	116000	0.00185	2.14e-07	116000		
B2	0.514	9.69e-05	188000	0.514	9.69e-05	188000	0.514	9.69e-05	188000	0.514	9.69e-05	188000	> 85	
B3														binds
